In this data set the target is T1, CasEnd-33 (synthetic construct).
T1 chain: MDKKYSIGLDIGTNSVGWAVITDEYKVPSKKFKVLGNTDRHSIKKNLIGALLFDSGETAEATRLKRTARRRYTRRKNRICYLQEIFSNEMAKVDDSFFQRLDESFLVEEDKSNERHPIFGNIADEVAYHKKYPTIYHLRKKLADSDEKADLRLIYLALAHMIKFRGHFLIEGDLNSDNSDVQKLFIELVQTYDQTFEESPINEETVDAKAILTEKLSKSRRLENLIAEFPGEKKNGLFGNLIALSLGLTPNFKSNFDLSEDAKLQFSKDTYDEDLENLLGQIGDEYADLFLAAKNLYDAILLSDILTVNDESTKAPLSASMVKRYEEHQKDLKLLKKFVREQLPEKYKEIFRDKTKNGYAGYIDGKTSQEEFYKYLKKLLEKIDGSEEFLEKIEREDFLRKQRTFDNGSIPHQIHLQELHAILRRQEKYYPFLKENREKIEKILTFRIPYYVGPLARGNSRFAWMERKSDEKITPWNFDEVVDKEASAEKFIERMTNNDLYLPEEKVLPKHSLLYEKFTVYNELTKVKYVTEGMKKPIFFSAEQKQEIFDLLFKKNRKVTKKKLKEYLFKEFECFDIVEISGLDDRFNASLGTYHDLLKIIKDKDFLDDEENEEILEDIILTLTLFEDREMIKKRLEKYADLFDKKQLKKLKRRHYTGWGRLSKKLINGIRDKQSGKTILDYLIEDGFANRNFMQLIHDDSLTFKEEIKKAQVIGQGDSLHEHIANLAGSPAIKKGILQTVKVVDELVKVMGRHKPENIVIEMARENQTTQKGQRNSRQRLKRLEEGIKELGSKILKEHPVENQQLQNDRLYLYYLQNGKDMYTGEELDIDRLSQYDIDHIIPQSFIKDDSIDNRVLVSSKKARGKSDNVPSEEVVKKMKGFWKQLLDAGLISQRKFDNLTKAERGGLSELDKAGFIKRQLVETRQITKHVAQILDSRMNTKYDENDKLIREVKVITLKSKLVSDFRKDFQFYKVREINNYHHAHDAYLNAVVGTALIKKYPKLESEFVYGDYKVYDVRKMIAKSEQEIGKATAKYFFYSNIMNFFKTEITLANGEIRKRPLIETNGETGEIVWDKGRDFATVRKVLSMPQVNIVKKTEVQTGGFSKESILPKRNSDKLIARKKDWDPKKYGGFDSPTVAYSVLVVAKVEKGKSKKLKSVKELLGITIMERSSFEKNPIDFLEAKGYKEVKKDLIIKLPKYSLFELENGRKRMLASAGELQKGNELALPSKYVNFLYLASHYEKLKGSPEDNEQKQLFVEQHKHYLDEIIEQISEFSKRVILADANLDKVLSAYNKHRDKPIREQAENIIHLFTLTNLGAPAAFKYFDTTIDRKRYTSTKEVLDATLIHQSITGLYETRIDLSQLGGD
The data set is described as follows: cell_activity; +++; HEK293T; PAM not stated. In short, it runs like this:
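BFP-to-GFP conversion via reverse transcriptase fusion with each Cas endonuclease plus template RNA: 200 ng of each plasmid nucleofected into 250,000 BFP-expressing HEK293T cells (program DS-150). Percent GFP+ cells by flow cytometry at day 4 measured editing.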

Some results are limits rather than exact numbers.

B1: BFP-to-GFP template RNA ; BFP reporter protospacer (ssRNA ; dsDNA)
RNA: GCCGAAGCACUGCACGCCGUGUUUUAGAGCUAGAAAUAGCAAGUUAAAAUAAGGCUAGUCCGUUAUCAACUUGAAAAAGUGGCACCGAGUCGGUGCACCCUGACGUACGGCGUGCAGUGCUU
DNA 1: GCCGAAGCACTGCACGCCGT
DNA 2: ACGGCGTGCAGTGCTTCGGC
As for B1, the activity was ≥ 100 % of reference.
